Data: the supplement of paper PMC12764529
± gives the half width of the 95% confidence interval.

Key:
[1] = folding stability dG unfold (combined trypsin and chymotrypsin); higher = more stable
Outline: (§1)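 Unfolding free energy was derived, per protease or combined, against a sequence-predicted unfolded-state K50 and a shared folded-state K50, starting from K50 inferred by Bayesian fitting of sequencing counts. Digestion with trypsin and chymotrypsin was carried out on designed mini-proteins under 80 residues without cysteine in a PA-tagged cDNA display construct. Only designs with AlphaFold2 dimer inter-PAE above 15 were kept.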

[2] = folding stability dG unfold from trypsin proteolysis; higher = more stable
Outline: as §1

[3] = folding stability dG unfold from chymotrypsin proteolysis; higher = more stable
Outline: as §1

Sequence | folding stability dG unfold [1] | folding stability dG unfold [2] | folding stability dG unfold [3]
SAGGSRRLEFMFYNPEAGFLIKIEVTYDPDDPGYYKIRVEVYPPDGEPIFPVEIYVPPGDDIKIKFPSAGGS [r16_654_TrROS] | 4.31 ± 0.29 kcal/mol | 3.54 ± 0.35 kcal/mol | 4.42 ± 0.13 kcal/mol
SAGGSRVEVEVEVEGDTLRVRLRVYSEGGPPLLEAEAELPLGPVPPLPPVEVRVDPLEEEYPAKYFSAGGSA [r2_332_TrMRF] | 2.5 ± 0.31 kcal/mol | 2.82 ± 0.14 kcal/mol | 2.28 ± 0.17 kcal/mol
SAGGSSELEEAIEKARAEPGVLVERTVKLPDGRELKVEVDPKTGIVTLTETLPDGSTTTKEETYEPSAGGSA [r2_263_JUSTAS] | 1.11 ± 0.13 kcal/mol | 0.512 ± 0.088 kcal/mol | 1.26 ± 0.085 kcal/mol
SAGGSSMPLVKKEVDATRPDGSPLSFEEYLSSLKPNIRSEPIPNGKTVVTAPDPATGSTYTITIEESAGGSA [r2_234_JUSTAS] | -0.428 ± 0.079 kcal/mol | -1.31 ± 0.19 kcal/mol | -0.37 ± 0.14 kcal/mol
SAGGSSMTTKTINLSLPNGVEELTITITTPPDGTYNATFYFPKTGKKTTHNFTSEEEIEKFIEELIKESAGG [r13_857_JUSTAS] | 4.01 ± 0.089 kcal/mol | 2.97 ± 0.086 kcal/mol | 4.291 ± 0.036 kcal/mol
SAGGSSMTVTKLPTNKTVTTRPLPSSSSVTTTTTFDPNSPVATVTTTDTSSDTSTTTTVPLGPGAFSAGGSA [r2_114_JUSTAS] | 0.824 ± 0.11 kcal/mol | 0.783 ± 0.035 kcal/mol | 0.892 ± 0.06 kcal/mol
SAGGSSPAARRLAKRIAKLMMKKHPPGEKRTVEIELPDGVEIKATFNNNGNIDDIEIRSPDGEPIISAGGSA [r2_84_TrROS] | 0.644 ± 0.36 kcal/mol | 0.771 ± 0.17 kcal/mol | 0.482 ± 0.4 kcal/mol
SAGGSSPPTVEVSFDPASGTLTITTPDGTTTYSVKSVTVTRLPPELTLITITLEDGTVLTFELVVASAGGSA [r2_268_JUSTAS] | 4.52 ± 0.13 kcal/mol | 3.36 ± 0.15 kcal/mol | 4.65 ± 0.063 kcal/mol
SAGGSSSASNISTNPTPLPEESVTVTASSDGVITVTITDPNGVPTTYTYNIPSGSIEEAIAEAISSSAGGSA [r2_298_JUSTAS] | 1.97 ± 0.094 kcal/mol | 1.86 ± 0.059 kcal/mol | 2.06 ± 0.09 kcal/mol
SAGGSSSLLEGLPGVVEVTVTTSLSVRPLSPEAARANPGQADRTVPLPRTTVTVTVEFPVSPAGILSAGGSA [r2_404_JUSTAS] | 0.94 ± 0.15 kcal/mol | 0.509 ± 0.1 kcal/mol | 1.15 ± 0.067 kcal/mol
SAGGSSSSSYTLNYPDKRVNVSVSHPPSGPLNVTITVYDPNGNKTKTITSPVGSLEKAKSLLEKLLSAGGSA [r2_82_JUSTAS] | 1.45 ± 0.11 kcal/mol | 1.63 ± 0.04 kcal/mol | 1.28 ± 0.062 kcal/mol
SAGGSSVRISFPNGYTVEITVTEDSATITLRSPTSTETVEFPSSVQVTITGPLNQPVTFDIPSSSESAGGSA [r2_57_TrMRF] | 2.8 ± 0.057 kcal/mol | 2.77 ± 0.077 kcal/mol | 2.811 ± 0.024 kcal/mol
SAGGSTTITLPDGRTATVEPDPNGVERYTVPGHPGVYIEKDPSTNKLTVTTVDPSSGSPVTSVIEESAGGSA [r2_477_JUSTAS] | 0.0736 ± 0.15 kcal/mol | 0.243 ± 0.043 kcal/mol | -0.572 ± 0.44 kcal/mol
SAGGSVEEIAEELAKQPSYTKVTVTLFVDPDGTARVVITDVENGKTYTVPLPPAATPVGTLTLPVESAGGSA [r2_74_JUSTAS] | 1.63 ± 0.083 kcal/mol | 1.56 ± 0.026 kcal/mol | 1.68 ± 0.046 kcal/mol
SAGGSVEELRELARKLAEELGLEVVEVEVEEREDGKVTVTVTIKGPPKVEIKLEVTENEVKITEIKPSAGGS [r8_432_TrROS_Hall] | 3.42 ± 0.23 kcal/mol | 3.36 ± 0.25 kcal/mol | 3.35 ± 0.26 kcal/mol
